Assay results taken from paper PMC9309405, “The integration of AlphaFold-predicted and crystal structures of human trans-3-hydroxy-L-proline dehydratase reveals a regulatory catalytic mechanism” (Computational and Structural Biotechnology Journal, 2022).

Substrate: O=C(O)[C@H]1NCC[C@@H]1O
Test: purified protein
Format: biochemical, Homo sapiens
Settings: oxidizing conditions, without DTT; 1xPBS; substrate-inhibition fit; with 1 mM DTT a separate lower KM is reported; substrate named only hydroxyproline in methods

B1: human trans-3-Hydroxy-L-proline dehydratase (hL3HYPDH) (Homo sapiens) (protein)
chain: MESALAVPRLPPHDPGTPVLSVVDMHTGGEPLRIVLAGCPEVSGPTLLAKRRYMRQHLDHVRRRLMFEPRGHRDMYGAVLVPSELPDAHLGVLFLHNEGYSSMCGHAVLALGRFALDFGLVPAPPAGTREARVNIHCPCGLVTAFVACEDGRSHGPVRFHSVPAFVLATDLMVDVPGHGKVMVDIAYGGAFYAFVTAEKLGLDICSAKTRDLVDAASAVTEAVKAQFKINHPDSEDLAFLYGTILTDGKDAYTKEPTTNICVFADEQVDRSPTGSGVTARIALQYHKGLLELNQMRAFKSSATGSVFTGKAVREAKCGDFKAVIVEVSGQAHYTGTASFIIEDDDPLRDGFLLK
notes: recombinant, cloned in pET28b, E. coli BL21(DE3), His-Trap then Superdex 200; homodimer; crystal model residues 4-354; Cys104-Cys137 intramolecular disulphide
  Km: 416.7 µM
